“Also recorded” adds a separate entry of the source.
Experiments:
[1] = test system: Gba1−/− fibroblasts; assay: GCase activity in media and cell lysates after transient transfection (secretion and retention); assay type: cell-based, mouse; conditions: media, FIG. 11A, 11B
Text: FIG. 11A-FIG. 11C: Secretion and retention of GCase with alanine variants in the TDK (FIG. 11A) or DSPIIV (SEQ ID NO 15) (FIG. 11B and FIG. 11C) sequences. FIG. 11A depicts activities in the media of Gba1−/− fibroblasts following transient transfections of each of the specified alanine substituted GCases in the TDK region. […] FIG. 11B depicts in the Left Panel: Activities in the media following transient transfections of various DSPIIV (SEQ ID NO 15) alanine substituted GCases and the % of GCase secreted. The latter was calculated as {ng GCase (in media)/[ng GCase (in media)+ng (GCase in lysates)]}×100 (also see Table 2). […] The transfections alone (Null+lipo) had no effect. […] FIG. 11C deicts in cellular lysate GCase activities from the various alanine substituted GCases in the DSPIIV (SEQ ID NO 15) sequence as indicated. […] The doubly alanine substituted GCase had little intracellular activity, i.e., nearly all the GCase was secreted into the media.
(§1) Enzyme Assays: Cell pellets were homogenized in 0.25% Na-taurocholate and 0.25% Triton X-100. GCase activities were determined fluorometrically with 4 mM 4MU-Glc in 0.2M/0.1M citric-phosphate, pH 5.6 (18, 54)

[2] = CRIM specific activity of GCase variants (activity per cross-reacting immunological material); assay type: biochemical; conditions: FIG. 11A, 11B right panels
Method: as §1
Corresponding effects on the secretion of GCases from the cells containing various mutations in DSPIIVDITDK were found by assessing the activity of GCases in the media and cell lysate (FIG. 11 A-C). […] Using this assessment, the ratio of CRIM specific activities relative to WT (assigned 100%) for AAA, TAD, and AKA were 20%, 32%, and 49%, respectively (FIG. 11A, right panel), or that more GCase protein was required from the respective mutants to achieve the same enzyme activity as the WT. […] For the other mutants this ranged from 22-36%. This compares to ˜0% for the WT or D399E GCases Immunoaffinity anti-GCase column purification of the various GCases from media confirmed the excesses of these mutant GCases and the inability to detect WT or D399E GCases in media (data not shown).

[3] = target: T1, ldLIMP2 (Homo sapiens, UniProt Q14108); assay: Immunoprecipitation of alanine substituted GCases (TKD sequence) with ldLIMP2; assay type: binding; conditions: for binding of GCase variant to ldLIMP2, in words: GCase:LIMP2 1:1, immunoblot, FIG. 6
T1 construct: Purified luminal domain LIMP-2 (1d-LIMP2) was custom made (Sino Biological Inc., PRC.); purchased Sino Biological Inc
T1 sequence (Q14108 28-433 limits assumed): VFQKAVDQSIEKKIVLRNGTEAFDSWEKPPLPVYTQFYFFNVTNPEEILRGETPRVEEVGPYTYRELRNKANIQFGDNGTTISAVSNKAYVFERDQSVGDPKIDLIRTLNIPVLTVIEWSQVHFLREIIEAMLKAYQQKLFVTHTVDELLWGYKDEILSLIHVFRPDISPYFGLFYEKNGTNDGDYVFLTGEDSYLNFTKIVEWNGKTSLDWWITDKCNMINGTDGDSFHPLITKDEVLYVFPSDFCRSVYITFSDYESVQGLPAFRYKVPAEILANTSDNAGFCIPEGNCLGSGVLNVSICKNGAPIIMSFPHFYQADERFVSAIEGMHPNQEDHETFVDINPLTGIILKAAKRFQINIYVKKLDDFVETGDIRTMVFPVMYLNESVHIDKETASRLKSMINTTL
Text: FIG. 6A-6E: Immunoprecipitation of the alanine substituted GCases in the TKD sequence with ldLIMP2. In panels shown in FIG. 6A to FIG. 6D, the lanes 1 through 6 correspond to the band densities indicated by the bars in FIG. 6E. […] The quantitative results are shown in (FIG. 6E) in which 1, 2, 3, and 4 correspond to WT, AAA, AKA, and AKD, respectively.
Immunoprecipitation of GCases with mutations in the TKD sequence: For immunoblots, Gba1 knockout mouse fibroblasts (null/null) were transfected with the GBA1 constructs (WT or mutants) and expressed for 5 days. The GCases from harvested cell lysates were purified using a GCase antibody affinity column (Dynabeads protein G crosslinked (BS3) with rabbit anti-human GCase antibody). The purified GCases were then mixed with LIMP2 (1:1), incubated (30 min.), and applied to another affinity column (Dynabeads protein G crosslinked (BS3) with rabbit anti-LIMP2 antibody). Aliquots of each step (loading, wash and eluent) were collected and analyzed on 12.5% SDS gels. Immunoblots were developed using anti-human GCase antibody and AP conjugated color development kits. Mock experiments with either non-LIMP2 proteins added or no GCases added, were used as control. The quantitations of these immunoprecipitation data were obtained from densitometry measurements of the gels. The no-LIMP-2 bars are the controls for comparison, since GCase was processed through all steps without LIMP-2 to account for any losses of GCase; About 50% of the GCase was lost during processing.

[4] = test system: Gba1 null/null mouse fibroblasts; assay: Immunofluorescence co-localization of expressed GCase constructs (lysosome vs ER/Golgi); assay type: cell-based; conditions: for lysosomal localization of GCases with alanine substitutions in the TKD sequence, in words: FIG. 5; for co-localization to / retention in the ER/Golgi, in words: calnexin or calreticulin
Text: Immunofluorescence studies (IF): Mouse Gba1 null/null were used for the host cells for all transfection experiments. pCMV-AC-GFP Mammalian cell expression vector was used for expression of various GCases that included the TKD region (amino acids 407, 408 and 409) or the DSPIIV (SEQ ID NO 15) region (amino acids 399-404). Direct-labeled first antibodies were applied for IF detection; including anti-human GCase, -Calreticulin, -calnexin, -LIMP2, and -Lamp1. Lysotracker and ER tracker (Invitrogen) were also used as indicated. Analyses were done with a Zeiss AxioVert 200M with ApoTome. Co-localization analyses to obtain Pearson Indices were conducted using a module in the Axiovision 4.8 software.
Initial studies to localize the targeting peptide were conducted with GCase-GFP fusion constructs that had COOH-terminal deletions of GCase (FIG. 1). The constructs are designated as GCase-XX or XXX where the Xs represent the number of GCase amino acids deleted from the COOH-terminus. These constructs were transfected into and expressed in Gba1 null/null mouse fibroblasts using the CMV promoter (pCMV-AC-GFP or YFP) Immunofluorescence analyses using anti-human GCase IgG (green) and Lysotracker (Red) were used for colocalization of GCase to the lysosome (Red) or GCase (green) and Calreticulin or Calnexin (Red) for colocalization to the ER or Golgi (FIG. 2). […] Since LIMP-2 is the receptor for targeting of GCase to the lysosome, our working hypothesis was that the peptide sequence for binding of GCase to LIMP-2 was located within amino acids 347-422.

Molecule | increase of GCase activity in the media compared to WT ([1]; transient transfection) [fold] | CRIM specific activity relative to WT (assigned 100%) [2] [%] | binding of GCase variant to ldLIMP2, in words [3] | binding of GCase variant to ldLIMP2 ([3]; GCase on beads vs wash, FIG. 6C) | lysosomal localization of GCases with alanine substitutions in the TKD sequence, in words [4] | co-localization to / retention in the ER/Golgi, in words [4] | GCase activity in the media / secretion, in words [1]
TAD: human GCase with TKD (407-409) replaced by TAD (protein) ARPCIPKSFGYSSVVCVCNATYCDSFDPPTFPALGTFSRYESTRSGRRMELSMGPIQANHTGTGLLLTLQPEQKFQKVKGFGGAMTDAAALNILALSPPAQNLLLKSYFSEEGIGYNIIRVPMASCDFSIRTYTYADTPDDFQLHNFSLPEEDTKLKIPLIHRALQLAQRPVSLLASPWTSPTWLKTNGAVNGKGSLKGQPGDIYHQTWARYFVKFLDAYAEHKLQFWAVTAENEPSAGLLSGYPFQCLGFTPEHQRDFIARDLGPTLANSTHHNVRLLMLDDQRLLLPHWAKVVLTDPEAAKYVHGIAVHWYLDFLAPAKATLGETHRLFPNTMLFASEACVGSKFWEQSVRLGSWDRGMQYSHSIITNLLYHVVGWTDWNLALNPEGGPNWVRNFVDSPIIVDITADTFYKQPMFYHLGHFSKFIPEGSQRVGLVASQKNDLDAVALMHPDGSAVVVVLNRSSKDVPLTIKDPAVGFLETISPGYSIHTYLWRRQ | ~8 | 32 | bound similarly | – | – | – | –
AKA: human GCase with TKD (407-409) replaced by AKA (protein, listed as Homo sapiens) ARPCIPKSFGYSSVVCVCNATYCDSFDPPTFPALGTFSRYESTRSGRRMELSMGPIQANHTGTGLLLTLQPEQKFQKVKGFGGAMTDAAALNILALSPPAQNLLLKSYFSEEGIGYNIIRVPMASCDFSIRTYTYADTPDDFQLHNFSLPEEDTKLKIPLIHRALQLAQRPVSLLASPWTSPTWLKTNGAVNGKGSLKGQPGDIYHQTWARYFVKFLDAYAEHKLQFWAVTAENEPSAGLLSGYPFQCLGFTPEHQRDFIARDLGPTLANSTHHNVRLLMLDDQRLLLPHWAKVVLTDPEAAKYVHGIAVHWYLDFLAPAKATLGETHRLFPNTMLFASEACVGSKFWEQSVRLGSWDRGMQYSHSIITNLLYHVVGWTDWNLALNPEGGPNWVRNFVDSPIIVDIAKATFYKQPMFYHLGHFSKFIPEGSQRVGLVASQKNDLDAVALMHPDGSAVVVVLNRSSKDVPLTIKDPAVGFLETISPGYSIHTYLWRRQ | – | 49 | much less bound | about 50% | less lysosomal localization | majority of the enzymes co-localized to the ER/Golgi | –
AAA: human GCase with triple alanine substitution of TKD (positions 407-409) (protein, listed as Homo sapiens) ARPCIPKSFGYSSVVCVCNATYCDSFDPPTFPALGTFSRYESTRSGRRMELSMGPIQANHTGTGLLLTLQPEQKFQKVKGFGGAMTDAAALNILALSPPAQNLLLKSYFSEEGIGYNIIRVPMASCDFSIRTYTYADTPDDFQLHNFSLPEEDTKLKIPLIHRALQLAQRPVSLLASPWTSPTWLKTNGAVNGKGSLKGQPGDIYHQTWARYFVKFLDAYAEHKLQFWAVTAENEPSAGLLSGYPFQCLGFTPEHQRDFIARDLGPTLANSTHHNVRLLMLDDQRLLLPHWAKVVLTDPEAAKYVHGIAVHWYLDFLAPAKATLGETHRLFPNTMLFASEACVGSKFWEQSVRLGSWDRGMQYSHSIITNLLYHVVGWTDWNLALNPEGGPNWVRNFVDSPIIVDIAAATFYKQPMFYHLGHFSKFIPEGSQRVGLVASQKNDLDAVALMHPDGSAVVVVLNRSSKDVPLTIKDPAVGFLETISPGYSIHTYLWRRQ | – | 20 | essentially no binding; also recorded: did not bind | – | no lysosomal localization | majority of the enzymes co-localized to the ER/Golgi; also recorded: abundant colocalization to the ER | the least
